# Results taken from patent publication US7410639 (VEGENICS, dated 2008).
# B1: VEGFDΔNΔC (ligand)
# chain: FYDIETLKVIDEEWQRTQCSPRETCVEVASELGKSTNTFFKPPCVNVFRCGGCCNEESLICMNTSTSYISKQLFEISVPLTSVPELVPVKVANHTGCKCLPTAPRHPYS
# notes: also called internal VEGF-D polypeptide; fraction #3; not shown: FLAG octapeptide at the N-terminus
# Molecular target: T1, VEGFR2-EpoR chimeric receptor (mouse VEGFR2 extracellular domain with mouse EpoR transmembrane and … (mouse, UniProt P35918 20-762; P14753 250-507, limits assumed)
# T1 construct: extracellular domain;domain: transmembrane and cytoplasmic domains; Expressed on the surface of Ba/F3 cells (line Ba/F3-NYK-EpoR); also called VEGF receptor-2; Flk-1
# T1 sequence (P35918 other isoform, or with tags, fused parts or gaps mutant limits assumed): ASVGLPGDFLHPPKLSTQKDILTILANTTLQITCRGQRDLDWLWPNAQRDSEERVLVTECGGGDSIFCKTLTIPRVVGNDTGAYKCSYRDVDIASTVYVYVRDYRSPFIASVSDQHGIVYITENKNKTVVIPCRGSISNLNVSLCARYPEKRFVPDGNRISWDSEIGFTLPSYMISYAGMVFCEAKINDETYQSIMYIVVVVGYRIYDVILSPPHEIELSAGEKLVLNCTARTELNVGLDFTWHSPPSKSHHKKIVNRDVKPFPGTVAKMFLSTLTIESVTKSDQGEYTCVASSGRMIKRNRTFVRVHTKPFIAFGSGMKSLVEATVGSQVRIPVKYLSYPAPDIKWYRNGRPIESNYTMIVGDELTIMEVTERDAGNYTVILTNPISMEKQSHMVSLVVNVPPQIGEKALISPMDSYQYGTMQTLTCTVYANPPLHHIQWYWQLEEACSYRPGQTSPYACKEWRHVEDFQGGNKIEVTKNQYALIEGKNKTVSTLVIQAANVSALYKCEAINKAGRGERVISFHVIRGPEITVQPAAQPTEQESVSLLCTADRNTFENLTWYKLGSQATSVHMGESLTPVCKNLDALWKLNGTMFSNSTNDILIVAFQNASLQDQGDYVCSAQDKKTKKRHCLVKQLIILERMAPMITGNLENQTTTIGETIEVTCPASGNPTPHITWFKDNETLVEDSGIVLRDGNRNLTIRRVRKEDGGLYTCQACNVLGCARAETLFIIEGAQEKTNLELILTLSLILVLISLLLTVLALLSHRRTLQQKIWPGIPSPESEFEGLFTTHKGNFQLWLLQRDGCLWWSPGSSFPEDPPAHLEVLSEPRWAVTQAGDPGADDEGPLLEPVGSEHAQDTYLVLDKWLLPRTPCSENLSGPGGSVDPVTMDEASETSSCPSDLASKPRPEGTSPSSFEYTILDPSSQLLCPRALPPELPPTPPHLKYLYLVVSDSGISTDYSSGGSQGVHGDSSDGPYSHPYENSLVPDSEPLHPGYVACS
# Experiment: Ba/F3 VEGFR2-EpoR bioassay (binding inferred from proliferation)
# Method: Recombinant VEGFDΔNΔC, and material purified by M2 affinity chromatography, was assessed using the VEGFR2 bioassay. Bioassay cells (10^4), washed to remove IL-3, were incubated with aliquots of conditioned medium from VEGF-D transfected COS cells, fraction #1 from the affinity column (void volume), or fraction #3 from the affinity column (containing VEGFDΔNΔC). All samples were tested at an initial concentration of 20% (i.e., ⅕) followed by doubling dilutions. Cells were allowed to incubate for 48 hours at 37° C. in a humidified atmosphere of 10% CO_2. Cell proliferation was quantitated by the addition of 1 μCi of ^3H-thymidine and counting the amount incorporated over a period of 4 hours.
# The bioassay for the capacity of polypeptides to bind to VEGF receptor-2 is described in detail in Example 7. Aliquots of fractions eluted from the M2 affinity column, containing the VEGFDΔNΔC protein, were diluted in medium and tested in the VEGFR2 bioassay as previously described.
binder,measurement,value
B1,binding result,binds
